Reference: patent publication US20130058962A1 (published 2013)
Where a chain is given by its changes, count along the chain named. Values joined by “and” are separate entries in the source; they are usually repeats but may differ in a detail not shown here. Equal entries are not always repeated.

Columns and labels:
[1] = target: Clostridium difficile toxin B (TcdB) holotoxin (Clostridium difficile) (UniProt P18177); assay: cell-based or functional assay
[2] = target: Clostridium difficile toxin A (TcdA) holotoxin (Clostridium difficile) (UniProt P16154); assay: cell-based or functional assay
Chain of Clostridium difficile toxin A (TcdA) holotoxin (Clostridium difficile) (P16154 whole entry): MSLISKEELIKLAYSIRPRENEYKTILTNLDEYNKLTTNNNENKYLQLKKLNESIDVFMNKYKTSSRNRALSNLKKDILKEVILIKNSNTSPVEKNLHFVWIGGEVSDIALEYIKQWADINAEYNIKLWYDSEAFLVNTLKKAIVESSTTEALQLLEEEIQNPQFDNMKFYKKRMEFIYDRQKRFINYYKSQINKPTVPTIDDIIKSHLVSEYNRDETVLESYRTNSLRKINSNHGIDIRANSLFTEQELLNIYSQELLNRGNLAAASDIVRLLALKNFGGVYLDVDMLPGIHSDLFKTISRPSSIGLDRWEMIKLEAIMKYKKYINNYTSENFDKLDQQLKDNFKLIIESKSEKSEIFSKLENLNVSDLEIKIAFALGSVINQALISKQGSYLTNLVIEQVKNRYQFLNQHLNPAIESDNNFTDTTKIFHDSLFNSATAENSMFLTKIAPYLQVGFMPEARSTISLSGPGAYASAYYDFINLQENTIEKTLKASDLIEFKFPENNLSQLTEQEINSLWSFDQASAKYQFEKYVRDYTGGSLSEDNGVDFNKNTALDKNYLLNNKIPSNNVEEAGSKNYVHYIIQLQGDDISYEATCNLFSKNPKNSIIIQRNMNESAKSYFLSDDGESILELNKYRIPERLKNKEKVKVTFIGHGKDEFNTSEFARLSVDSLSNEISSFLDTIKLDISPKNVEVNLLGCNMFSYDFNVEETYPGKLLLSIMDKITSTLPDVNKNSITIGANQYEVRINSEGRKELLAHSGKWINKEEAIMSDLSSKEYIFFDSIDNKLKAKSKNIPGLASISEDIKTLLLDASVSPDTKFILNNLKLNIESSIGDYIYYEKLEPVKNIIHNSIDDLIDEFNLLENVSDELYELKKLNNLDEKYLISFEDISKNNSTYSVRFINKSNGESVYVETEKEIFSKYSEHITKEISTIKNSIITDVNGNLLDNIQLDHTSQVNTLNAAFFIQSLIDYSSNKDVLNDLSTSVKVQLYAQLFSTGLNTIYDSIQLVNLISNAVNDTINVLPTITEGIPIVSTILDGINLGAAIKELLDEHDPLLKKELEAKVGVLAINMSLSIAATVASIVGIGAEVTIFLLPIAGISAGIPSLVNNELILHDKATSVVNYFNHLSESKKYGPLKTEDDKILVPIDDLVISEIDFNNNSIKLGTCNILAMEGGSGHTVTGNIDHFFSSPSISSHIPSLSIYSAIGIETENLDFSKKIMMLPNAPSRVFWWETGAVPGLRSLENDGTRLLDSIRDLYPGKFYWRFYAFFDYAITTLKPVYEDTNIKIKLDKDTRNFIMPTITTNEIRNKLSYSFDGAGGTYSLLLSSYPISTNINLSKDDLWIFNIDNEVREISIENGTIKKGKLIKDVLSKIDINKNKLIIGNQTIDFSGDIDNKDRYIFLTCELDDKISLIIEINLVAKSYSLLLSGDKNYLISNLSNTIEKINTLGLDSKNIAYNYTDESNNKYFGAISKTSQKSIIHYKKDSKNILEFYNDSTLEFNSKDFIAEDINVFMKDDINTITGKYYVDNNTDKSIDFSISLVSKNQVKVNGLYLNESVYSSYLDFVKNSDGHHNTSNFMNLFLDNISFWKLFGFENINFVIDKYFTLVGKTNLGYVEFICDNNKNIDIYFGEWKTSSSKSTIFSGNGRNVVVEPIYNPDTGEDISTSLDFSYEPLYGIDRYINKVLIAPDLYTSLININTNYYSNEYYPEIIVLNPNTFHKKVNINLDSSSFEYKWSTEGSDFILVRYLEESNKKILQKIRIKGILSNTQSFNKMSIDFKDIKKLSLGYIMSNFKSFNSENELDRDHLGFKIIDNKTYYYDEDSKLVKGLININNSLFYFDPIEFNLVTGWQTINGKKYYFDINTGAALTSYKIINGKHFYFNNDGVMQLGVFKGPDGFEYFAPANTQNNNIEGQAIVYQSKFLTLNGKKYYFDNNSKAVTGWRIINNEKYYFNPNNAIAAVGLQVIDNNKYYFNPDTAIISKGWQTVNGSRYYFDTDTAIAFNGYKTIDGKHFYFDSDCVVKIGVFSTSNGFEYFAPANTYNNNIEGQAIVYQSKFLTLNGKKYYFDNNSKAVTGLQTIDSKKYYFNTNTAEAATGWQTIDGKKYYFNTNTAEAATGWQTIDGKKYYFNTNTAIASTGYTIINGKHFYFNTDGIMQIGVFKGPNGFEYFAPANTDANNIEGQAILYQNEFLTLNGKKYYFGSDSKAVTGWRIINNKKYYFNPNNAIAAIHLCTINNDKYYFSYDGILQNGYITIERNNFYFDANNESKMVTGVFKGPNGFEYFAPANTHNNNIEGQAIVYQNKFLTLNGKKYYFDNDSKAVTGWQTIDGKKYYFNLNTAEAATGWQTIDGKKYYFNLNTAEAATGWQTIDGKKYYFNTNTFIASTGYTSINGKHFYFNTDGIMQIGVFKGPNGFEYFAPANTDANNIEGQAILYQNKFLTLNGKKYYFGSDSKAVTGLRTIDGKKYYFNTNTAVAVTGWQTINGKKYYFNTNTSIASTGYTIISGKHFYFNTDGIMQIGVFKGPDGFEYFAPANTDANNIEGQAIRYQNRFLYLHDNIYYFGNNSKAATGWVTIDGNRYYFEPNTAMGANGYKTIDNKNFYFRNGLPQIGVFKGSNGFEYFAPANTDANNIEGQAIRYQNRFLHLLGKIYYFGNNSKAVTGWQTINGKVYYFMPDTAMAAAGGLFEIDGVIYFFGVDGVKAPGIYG

[3] = target: T1, Botulinum neurotoxin serotype A1 (BoNT/A) holotoxin (Clostridium botulinum, UniProt P0DPI1 2-1296); assay: method not stated
[4] = target: T1, Botulinum neurotoxin serotype A1 …; assay: binding competition assay
[5] = target: BoNT/A heavy chain (Clostridium botulinum, UniProt P0DPI1 449-1296); assay: ELISA on BoNT subunits / Western blot of reduced holotoxin
[6] = target: purified recombinant BoNT/A light chain (Clostridium botulinum, UniProt P0DPI1 2-448); assay: as above

Chain of Clostridium difficile toxin B (TcdB) holotoxin (Clostridium difficile) (P18177 2-2366): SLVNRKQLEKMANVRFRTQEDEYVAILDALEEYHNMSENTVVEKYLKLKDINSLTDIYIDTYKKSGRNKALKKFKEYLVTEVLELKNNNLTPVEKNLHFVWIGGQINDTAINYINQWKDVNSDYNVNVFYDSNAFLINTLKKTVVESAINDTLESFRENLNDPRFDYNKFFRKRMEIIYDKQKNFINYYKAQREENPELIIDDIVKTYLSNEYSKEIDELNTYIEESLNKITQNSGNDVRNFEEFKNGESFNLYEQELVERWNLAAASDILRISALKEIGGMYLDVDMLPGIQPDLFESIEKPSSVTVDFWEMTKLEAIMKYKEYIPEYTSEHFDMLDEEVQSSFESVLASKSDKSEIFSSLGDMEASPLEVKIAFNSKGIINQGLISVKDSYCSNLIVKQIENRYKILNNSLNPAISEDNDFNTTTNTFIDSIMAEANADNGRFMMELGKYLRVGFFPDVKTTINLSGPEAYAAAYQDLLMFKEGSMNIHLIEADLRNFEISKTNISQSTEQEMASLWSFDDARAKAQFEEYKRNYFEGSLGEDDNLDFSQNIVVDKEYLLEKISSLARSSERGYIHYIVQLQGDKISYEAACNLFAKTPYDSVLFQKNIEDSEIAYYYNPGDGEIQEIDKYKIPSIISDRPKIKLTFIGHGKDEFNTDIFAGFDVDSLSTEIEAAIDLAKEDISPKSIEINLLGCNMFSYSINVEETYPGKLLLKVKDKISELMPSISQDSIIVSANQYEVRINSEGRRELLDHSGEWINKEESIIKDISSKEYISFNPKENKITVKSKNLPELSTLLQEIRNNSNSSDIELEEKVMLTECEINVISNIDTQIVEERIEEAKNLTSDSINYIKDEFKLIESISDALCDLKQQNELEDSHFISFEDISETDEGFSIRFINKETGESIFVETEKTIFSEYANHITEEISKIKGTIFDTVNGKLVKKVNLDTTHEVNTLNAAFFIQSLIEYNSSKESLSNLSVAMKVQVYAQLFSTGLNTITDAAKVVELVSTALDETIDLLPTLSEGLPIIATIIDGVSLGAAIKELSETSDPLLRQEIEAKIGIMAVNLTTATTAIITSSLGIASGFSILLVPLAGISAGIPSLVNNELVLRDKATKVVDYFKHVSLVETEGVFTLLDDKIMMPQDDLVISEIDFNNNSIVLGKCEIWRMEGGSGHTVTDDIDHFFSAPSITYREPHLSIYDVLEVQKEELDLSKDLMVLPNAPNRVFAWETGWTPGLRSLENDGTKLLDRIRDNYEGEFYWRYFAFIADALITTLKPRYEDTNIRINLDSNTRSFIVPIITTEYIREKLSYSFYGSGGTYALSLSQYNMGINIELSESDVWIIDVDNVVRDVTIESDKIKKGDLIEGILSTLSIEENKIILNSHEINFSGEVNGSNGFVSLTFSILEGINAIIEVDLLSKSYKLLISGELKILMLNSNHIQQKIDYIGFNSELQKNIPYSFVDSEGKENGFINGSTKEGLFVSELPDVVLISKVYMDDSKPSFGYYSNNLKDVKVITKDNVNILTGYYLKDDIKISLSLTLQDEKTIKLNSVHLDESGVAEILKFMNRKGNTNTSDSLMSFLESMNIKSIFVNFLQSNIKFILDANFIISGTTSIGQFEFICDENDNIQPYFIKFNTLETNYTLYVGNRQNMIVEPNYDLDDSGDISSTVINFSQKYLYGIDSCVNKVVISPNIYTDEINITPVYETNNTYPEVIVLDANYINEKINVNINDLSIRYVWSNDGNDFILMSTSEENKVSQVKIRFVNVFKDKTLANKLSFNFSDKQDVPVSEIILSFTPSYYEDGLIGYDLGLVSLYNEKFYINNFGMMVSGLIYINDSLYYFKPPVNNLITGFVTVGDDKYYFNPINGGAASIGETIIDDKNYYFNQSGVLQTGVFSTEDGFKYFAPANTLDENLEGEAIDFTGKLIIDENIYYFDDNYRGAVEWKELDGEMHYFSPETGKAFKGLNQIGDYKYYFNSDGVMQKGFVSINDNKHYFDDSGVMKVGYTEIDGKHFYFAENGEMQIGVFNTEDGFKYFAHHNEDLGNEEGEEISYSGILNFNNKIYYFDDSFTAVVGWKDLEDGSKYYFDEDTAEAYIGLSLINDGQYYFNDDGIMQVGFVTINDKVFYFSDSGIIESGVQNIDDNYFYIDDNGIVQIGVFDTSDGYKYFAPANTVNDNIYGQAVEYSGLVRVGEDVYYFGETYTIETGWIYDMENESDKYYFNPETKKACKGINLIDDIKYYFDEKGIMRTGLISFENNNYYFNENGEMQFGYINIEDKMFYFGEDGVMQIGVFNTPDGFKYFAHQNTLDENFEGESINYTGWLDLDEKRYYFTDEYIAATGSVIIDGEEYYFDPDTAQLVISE

B1: 5D/AA6 VHH heterodimer (bispecific antibody)
chain: QVQLVESGGGLVQPGGSLRLSCEASGFTLDYYGIGWFRQPPGKEREAVSYISASARTILYADSVKGRFTISRDNAKNAVYLQMNSLKREDTAVYYCARRRFSASSVNRWLADDYDVWGRGTQVAVSSEPKTPKPQGGGGSGGGGSGGGGSQLQLVETGGGLVQPGGSLRLSCAASGFTFSDYVMTWVRQAPGKGPEWIATINTDGSTMRDDSTKGRFTISRDNAKNTLYLQMTSLKPEDTALYYCARGRVISASAIRGAVRGPGTQVTVSSEPKTPKPQP
fold neutralization of TcdB against the 5D/AH3 heterodimer [1]: 3 fold and 4 fold
fold neutralization of TcdA against the 5D/AH3 heterodimer (CT26 cell rounding) [2]: 5 fold

B2: scFv#7 (scFv)
scFv: SYELTQPPSMSVALGQTAKVTCQGDNLENFYVQWHQQKPGQAPVTVIFQDNKRPSGIPDRFSGSNSGNTATLTISGARTEDEADYYCQSGHSSIGGVFGSGTSLTVLGQPAAAGGGGSGGGGSGGGGSARQVQLQESGPSLVKPSQTLSLTCTVSGFSLTGNSVTWVRQAPGNVPEWLGGISRGGRTYYDTALKSRLSITRDTSKRQVSLSLSSVTTEDTAMYFCARSAYSTLYDYEYAADIYDWGPGLLVTVSSTSGAPVPYPDPLEPRAA
Kd [3]: ~1 nM

B3: JDQ-E9 (VHH)
VHH: QVQLVESGGGLVRPGGSLRLSCVVSGFAYEMPMMGWYRQAPGNQRELVATIGTGGRMNYADSVKGRFTISRDNAKNTVYLQMNSLKPEDTAAYYCKIEFTNYWGQGTQVTVSS
binding result [4]: binds

B4: JDQ-B2 (VHH)
VHH: QVQLVESGGGLVQPGGSLRLSCTVSGSIFDLPGMNWYRQAPGAQRELVADISSDGRRTNYADSVKGRFTMSRDNAKKTVYLQMDSLKPDDTAVYYCNVKFTHHWGQGIQVTVSS
binding result [4]: binds

B5: JDQ-C5 (VHH)
VHH: B4 VHH with D30G, N35S, R56G, N59H, M70I, A75D
binding result [4]: binds

B6: JDQ-F9 (VHH)
VHH: QVQLVESGGGLVQDGGSLRLSCTTSGSIDSFNAIEWYRQAPGKQRELVASISSDGRRTNYADSVKGRFTISGDNAKNTVYLQMNSLKPEDTAVYYCHRPFTHYWGQGTQVTVSS
binding result [4]: binds

B7: ciA-A5 (VHH)
VHH: QVQLVESGGGLVQPGGSLRLSCAASAGNLDYYAIGWFRQAPGKEREGVSCISSSDGSTVYTDSVKGRFTISRDNTKNTVDLQMDNLKPEDTAVYYCATVVNYYCTAGGSIHASPYEIWGQGTQVTVSS
binding result [5]: no binding
binding result [6]: no binding

B8: ciA-G5 (VHH)
VHH: QVQLVESGGGLVQPGGSLRLSCQVSGFTFGDWVMSWFRQAPGKEREFVASITATSSLKYYADSVKGRFTISRDNVNNTLFLQMDRLKSEDTAVYYCRSPNYWGQGTQVTVSA
binding result [5]: no binding
binding result [6]: no binding
